According to patent US20220251235A1 (published 2022):

Tests used:
[1] = target: T1, MAGEA10 peptide on HLA-A*02:01 (human); experiment: multimer staining
T1 peptide: SLLKFLAKV

[2] = target: T2, MAGEA10 peptide on HLA-A*02:04 (human); experiment: cytokine release
T2 peptide: SLLKFLAKV

[3] = target: T3, peptide on HLA-A*02:01 (human); experiment: cytokine release
T3 peptide: KLYGLDWAEL

B1: MAGE-A10^SLL-TCR (TCR, V domains shown)
Valpha: DQQVKQNSPSLSVQEGRISILNCDYTNSMFDYFLWYKKYPAEGPTFLISISSIKDKNEDGRFTVFLNKSAKHLSLHIVPSQPGDSAVYFCAANSNSGYALNFGKGTSLLVTP
Vbeta: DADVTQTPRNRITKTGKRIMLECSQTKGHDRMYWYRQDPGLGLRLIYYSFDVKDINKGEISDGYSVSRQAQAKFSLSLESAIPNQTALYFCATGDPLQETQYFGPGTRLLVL
- binding result [1]: recognises
- binding result [2]: recognises
- binding result [3]: no recognition
